Experimental data from patent US11174322B2, “Antibodies and peptides to treat HCMV related diseases” (priority 2017, dated 2021).

B1: pUL56 depleted of its W671-F680 fragment (protein)
chain: MEMNLLQKLCVVCSKCNEYAMELECLKYCDPNVLLAESTPFKRNAAAIVYLYRKIYPEVVAQNRTQSSLLTLYLEMLLKALHEDTALLDRALMAYSRQPDRAAFYRTVLRLDRCDRHHTVELQFTDNVRFSVSLATLNDIERFLCKMNYVYGILAPEAGLEVCAQLLELLRRLCGISPVARQEVYVEGTTCAQCYEELTIIPNQGRSLNKRLQGLLCNHIAVHRPSSQSDVNIQTVEQDLLDLTTRIPHLAGVLSALKSLFSSSSAYHSYIQEAEEALREYNLFTDIPERIYSLSDFTYWSRTSEVIVKRVGITIQQLNVYHQLCRALMNGISRHLYGEDVEDIFVLGEKALDGEERMFVGSVFAAPNRIIDLITSLSIQAFEDNPVFNKLHESNEMYTKIKHILEEIRRPLPDGTGGDGPEGEAIHLRGREAMSGTGTTLMTASNSSNSSTHSQRNNGGGGRARGGGKKAVGGGANGQDGDGSENGLRVRNCDEHEALDLVDARSRIHNVTREVNVRKRAYLQKVSEVGYGKVIRCIKTQERLTSKLIDVNLVGPLCLDFISKLMNGFLYRSQYHQDQDVVDVGDQFTYDEHLYVVNNLIHKSLPVESLPLLGQQIYELCNGPLFTHCTDRYPLSHNVDMAYACDNAGVLPHVKDDLVKCAEGTVYPSENFSDCQDLNVLQKEMWMHVRELVLSVALYNETFGKQLSIACLRDELHPDRDVILTYNKEWPLLLRHEGNLYKSKDLYLLLYRHLSRPDESGDVPTAPVAKPSTLTAAAAVSGAFREPDRPWLPSPYPSSSTAGVSRRVRATRKRPRRASSLLDLARDEHGIQDLVPGSLR
modifications: left off: small tags and cut ends
B2: 3xHA-pUL56: full-length amino-terminal 3xHA-tagged pUL56, HCMV large terminase subunit, purified from transfected HEK293 (protein)
chain: MEMNLLQKLCVVCSKCNEYAMELECLKYCDPNVLLAESTPFKRNAAAIVYLYRKIYPEVVAQNRTQSSLLTLYLEMLLKALHEDTALLDRALMAYSRQPDRAAFYRTVLRLDRCDRHHTVELQFTDNVRFSVSLATLNDIERFLCKMNYVYGILAPEAGLEVCAQLLELLRRLCGISPVARQEVYVEGTTCAQCYEELTIIPNQGRSLNKRLQGLLCNHIAVHRPSSQSDVNIQTVEQDLLDLTTRIPHLAGVLSALKSLFSSSSAYHSYIQEAEEALREYNLFTDIPERIYSLSDFTYWSRTSEVIVKRVGITIQQLNVYHQLCRALMNGISRHLYGEDVEDIFVLGEKALDGEERMFVGSVFAAPNRIIDLITSLSIQAFEDNPVFNKLHESNEMYTKIKHILEEIRRPLPDGTGGDGPEGEAIHLRGREAMSGTGTTLMTASNSSNSSTHSQRNNGGGGRARGGGKKAVGGGANGQDGDGSENGLRVRNCDEHEALDLVDARSRIHNVTREVNVRKRAYLQKVSEVGYGKVIRCIKTQERLTSKLIDVNLVGPLCLDFISKLMNGFLYRSQYHQDQDVVDVGDQFTYDEHLYVVNNLIHKSLPVESLPLLGQQIYELCNGPLFTHCTDRYPLSHNVDMAYACDNAGVLPHVKDDLVKCAEGTVYPSEWMVVKYMGFFNFSDCQDLNVLQKEMWMHVRELVLSVALYNETFGKQLSIACLRDELHPDRDVILTYNKEWPLLLRHEGNLYKSKDLYLLLYRHLSRPDESGDVPTAPVAKPSTLTAAAAVSGAFREPDRPWLPSPYPSSSTAGVSRRVRATRKRPRRASSLLDLARDEHGIQDLVPGSLR
modifications: left off: small tags and cut ends
notes: full-length amino-terminal 3xHA-tagged pUL56, HCMV large terminase subunit, purified from transfected HEK293

Biological target: T1, full-length pUL89 (His-pUL89) (Human cytomegalovirus, UniProt P16732)
T1 construct: made in house; host or cells: HEK293
T1 sequence (P16732 whole entry): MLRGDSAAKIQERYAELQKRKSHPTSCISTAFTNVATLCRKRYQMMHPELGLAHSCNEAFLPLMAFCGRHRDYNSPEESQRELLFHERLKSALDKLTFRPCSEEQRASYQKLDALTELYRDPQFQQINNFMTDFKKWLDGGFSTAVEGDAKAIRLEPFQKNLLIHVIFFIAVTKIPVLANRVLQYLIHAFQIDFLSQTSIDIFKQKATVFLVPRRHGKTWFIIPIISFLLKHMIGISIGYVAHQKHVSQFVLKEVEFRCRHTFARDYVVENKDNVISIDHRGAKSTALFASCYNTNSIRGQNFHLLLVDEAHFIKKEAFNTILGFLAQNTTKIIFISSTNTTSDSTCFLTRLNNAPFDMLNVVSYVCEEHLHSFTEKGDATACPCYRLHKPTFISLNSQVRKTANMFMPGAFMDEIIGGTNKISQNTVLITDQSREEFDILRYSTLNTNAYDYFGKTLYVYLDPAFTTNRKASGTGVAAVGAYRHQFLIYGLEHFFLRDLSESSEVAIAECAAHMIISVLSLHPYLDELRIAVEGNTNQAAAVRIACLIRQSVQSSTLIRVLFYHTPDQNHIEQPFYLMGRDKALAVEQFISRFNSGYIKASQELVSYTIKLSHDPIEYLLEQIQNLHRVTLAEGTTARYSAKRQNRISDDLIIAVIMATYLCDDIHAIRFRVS
Assay: Alpha assay (Amplified Luminescent Proximity Homogeneous Assay) of the pUL56/pUL89 protein-protein interaction
Format: binding, human cytomegalovirus (HCMV), AD169
Protocol: FIG. 2: Determination of pUL56 binding domains for the interaction with pUL89 Alpha assay results. The Alpha assay for the binding of full-length pUL89 (His-pUL89, 1.5E+03 nM) was performed with 5E+02 nM wild-type pUL56 (HA-pUL56) or a deletion mutant of pUL56 (HA-pUL56 Del W671-F680). As a negative control, proteins were used alone and a reaction was performed without proteins (mock). Two measures for each reaction were performed in duplicate.
Alpha (Amplified Luminescent Proximity Homogeneous Assay) experiments were conducted according to the manufacturer's protocol (PerkinElmer, USA). Five μL of transfected MRC-5 lysate with HCMV-BAC is first disposed in wells of a 96-well AlphaPlate. The final concentration of each proteins was optimized to obtain the best value of interaction. Ten μL of each purified protein were combined (to give a final assay concentration of 500 nM of 3xHA-pUL56 and 1.5 μM of 6xHis-pUL89). Ten μL and 15 μL of 10 mg/mL of donor beads and acceptor beads, respectively, were added and incubated for 1 hour. Plates were read on a PerkinElmer EnVision™ plate reader using an excitation wavelength of 680 nm and emission detection was set at 615 nm.
HEK293 were transfected with SC784 and pCI-neo His-89 expression plasmids and protein-protein interactions were carried out by the Alpha assay. This technology represents a powerful method to highlight protein-protein interactions (Ullman et al., 1994) (Waller et al., 2010). […]
Alpha assay needs both acceptor and donor beads. […] In the absence of a specific biological interaction between proteins, singlet molecules produced by the Donor bead cannot be detected beyond 200 nm from the Acceptor bead (data not shown). […] Alpha assays with 3xHA-pUL56 and 6xHis-pUL89 results in the production of over 9,000 relative light units (RLU), over two-fold more than negative controls (3xHA-pUL56 or His-pUL89) (FIG. 2). pUL56 depleted of its W671-F680 fragment was in turn soaked with pUL89-WT and their affinity assessed by Alpha analysis. […]

| Molecule | decrease of the interaction signal with pUL89-WT (pUL56 deletion mutant versus wild-type pUL56, FIG. 2) [%] | Alpha assay signal relative to negative controls (3xHA-pUL56 or His-pUL89 alone) (500 nM 3xHA-pUL56 with 1.5 μM 6xHis-pUL89) | Alpha assay signal (light production at 615 nm) (500 nM 3xHA-pUL56 with 1.5 μM 6xHis-pUL89, purified proteins from HEK293) |
| --- | --- | --- | --- |
| B1 | 50 |  |  |
| B2 |  | over two-fold | over 9,000 relative light units (RLU) |
